# From paper PMC10901376 (Science Advances, 2024)
# B1: S. aureus TarL H300N (enzyme, UniProt Q2G1B8 1-562, looked up)
# chain: MVKSKIYIDKIYWERVQLFVEGHSENLDLEDSNFVLRNLTETRTMKANDVKIDGNQFVCRFNVAILDNGYYLPEDKYLLVNEQELDYIAQLNPDVINDAYQNLKPEQEEEYNELETQNGKINFLLQTYLKEFRKGGISKKTVYTVTPEISSDVNEFVLDVVVTTPEVKSIYIVRKYKELRKYFRKQSFNTRQFIFKAIFNTTKFFHLKKGNTVLFTSDSRPTMSGNFEYIYNEMLRQNLDKKYDIHTVFKANITDRRGIIDKFRLPYLLGKADYIFVDDFHPLIYTVRFRRSQEVIQVWNAVGAFKTVGFSRTGKKGGPFIDSLNHRSYTKAYVSSETDIPFYAEAFGIKEKNVVPTGVPRTDVLFDEAYATQIKQEMEDELPIIKGKKVILFAPTFRGSGHGTAHYPFFKIDFERLARYCEKNNAVVLFKMHPFVKNRLNIADKHKQYFVDVSDFREVNDILFITDLLISDYSSLIYEYAVFKKPMIFYAFDLEDYITTRDFYEPYESFVPGKIVQSFDALMDALDNEDYEGEKVIPFLDKHFKYQDGRSSERLVRNLFGS
# Biological target: the molecule itself
# Assay: cryo-EM structure
protein,measurement,value
B1,stoichiometry N,4
